In assay [1] the target is I-IIC-CFluc (carboxyl terminal portion of luciferase attached to I-IIC domain of CaV1.2) [luciferase: P08659]. Description: split firefly luciferase complementation in HEK cells.
The target in assay [2] is endogenous β-subunit of mouse heart (CaVβ) (mouse) (UniProt Q8CC27). As to the kind of experiment: cell-based or functional assay.
Assay [3] concerns the target GKC-CFluc (carboxyl terminal portion of luciferase attached to GKC) [luciferase: P08659]. Description: split firefly luciferase complementation in HEK cells.
Assay [4] has as its target endogenous β subunits of guinea pig ventricular cardiomyocytes (guinea pig). Description: cell-based or functional assay.

Chain of NFluc-NSH3 (amino terminal portion of luciferase attached to NSH3) (P08659 1-416): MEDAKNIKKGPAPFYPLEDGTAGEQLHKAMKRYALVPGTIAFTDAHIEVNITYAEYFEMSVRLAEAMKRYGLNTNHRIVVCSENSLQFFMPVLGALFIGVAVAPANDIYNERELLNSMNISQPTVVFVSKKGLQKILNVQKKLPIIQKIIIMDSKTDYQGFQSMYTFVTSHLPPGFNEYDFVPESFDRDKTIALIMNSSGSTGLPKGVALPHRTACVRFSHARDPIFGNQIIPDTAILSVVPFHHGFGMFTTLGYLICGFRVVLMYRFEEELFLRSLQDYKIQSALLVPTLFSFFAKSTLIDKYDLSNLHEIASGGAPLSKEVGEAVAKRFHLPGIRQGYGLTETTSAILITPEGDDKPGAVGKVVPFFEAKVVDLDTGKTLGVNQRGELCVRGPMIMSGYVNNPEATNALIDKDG
Chain of GKC-CFluc (carboxyl terminal portion of luciferase attached to GKC) [luciferase: P08659] (P08659 398-550): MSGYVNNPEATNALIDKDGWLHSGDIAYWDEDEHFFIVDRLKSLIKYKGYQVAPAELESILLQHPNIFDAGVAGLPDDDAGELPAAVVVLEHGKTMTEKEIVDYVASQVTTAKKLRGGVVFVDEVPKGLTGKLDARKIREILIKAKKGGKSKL
Chain of I-IIC-CFluc (carboxyl terminal portion of luciferase attached to I-IIC domain of CaV1.2) [luciferase: P08659] (P08659 398-550): as above
Chain of CaVB-NFluc (amino terminal portion of luciferase attached to CaVB) (P08659 2-416): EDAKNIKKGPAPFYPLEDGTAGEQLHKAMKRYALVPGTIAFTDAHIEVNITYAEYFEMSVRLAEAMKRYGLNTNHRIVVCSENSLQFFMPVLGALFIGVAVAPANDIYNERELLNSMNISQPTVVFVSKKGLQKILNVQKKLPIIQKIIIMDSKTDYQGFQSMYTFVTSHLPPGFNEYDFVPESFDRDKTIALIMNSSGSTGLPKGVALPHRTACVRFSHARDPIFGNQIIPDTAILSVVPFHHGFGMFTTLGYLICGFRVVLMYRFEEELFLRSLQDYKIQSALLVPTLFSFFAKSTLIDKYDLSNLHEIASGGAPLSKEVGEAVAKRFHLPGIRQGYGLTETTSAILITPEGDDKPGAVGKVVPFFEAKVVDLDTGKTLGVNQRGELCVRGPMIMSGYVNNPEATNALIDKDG

Turning to “CaVB-NFluc (amino terminal portion of luciferase attached to CaVB) (from UniProt P08659 2-416)”, the bioluminescence signal, fold over negative control in assay [1] was found to be 15 fold.
In assay [2], “N-terminal 3×FLAG-tagged dihydropyridine (DHP)-resistant (T1066Y/Q1070M) AID-mutant rabbit α1C (from UniProt P15381 1-2171)” gave an increase in cardiac contractility by 200 nM isoproterenol (Langendorff hearts, nisoldipine present) of 1.2 fold; an increase in contractility in response to isoproterenol (isolated hearts, nisoldipine present) of 0 to 25%; an increase in fractional shortening by isoproterenol (cardiomyocytes, nisoldipine present) of 25%.
For the substance “NFluc-NSH3 (amino terminal portion of luciferase attached to NSH3) (from UniProt P08659 1-416)”, the bioluminescence, fold over negative control cells in assay [3] was determined as 70 fold.
Regarding YFP-tagged mutant (YWI/AAA) AID peptide, the increase in whole-cell current amplitude by 1 µM forskolin in assay [4] lay within 4 to 5 fold.
In assay [2], “pseudo-wild-type (pWT) α1C: transgenic FLAG-tagged DHP-resistant α1C subunit with wild-type AID (from UniProt P15381 1-2171)” registered an increase in cardiac contractility by 200 nM isoproterenol (Langendorff hearts, nisoldipine present) of 3.3 fold; an increase in fractional shortening by isoproterenol (cardiomyocytes, nisoldipine present) of 100%; an increase of Ca2+ current by forskolin of 1.8 fold; an increase of nisoldipine-insensitive current by 200 nM isoproterenol of 1.9 fold. Moreover, in assay [2], the shift of Vmid in the hyperpolarizing direction by 200 nM isoproterenol was found to be 4.4 mV.

For the origin of these results see US20190250145A1.
